Assay results reported in the supplement of paper PMC11908140.

B1: library; numbered along this chain (parent)
chain: MRKPRAAVGSGHRKQAASQEGRQKHAKNNSQAKPSACDGLARQPEEVVLQASVSSYHLFRDVAEVTAFRGSLLSWYDQEKRDLPWRRRAEDEMDLDRRAYAVWVSEVMLQQTQVATVINYYTGWMQKWPTLQDLASASLEEVNQLWAGLGYYSRGRRLQEGARKVVEELGGHMPRTAETLQQLLPGVGRYTAGAIASIAFGQATGVVDGNVARVLCRVRAIGADPSSTLVSQQLWGLAQQLVDPARPGDFNQAAMELGATVCTPQRPLCSQCPVESLCRARQRVEQEQLLASGSLSGSPDVEECAPNTGQCHLCLPPSEPWDQTLGVVNFPRKASRKPPREESSATCVLEQPGALGAQILLVQRPNSGLLAGLWEFPSVTWEPSEQLQRKALLQELQRWAGPLPATHLRHLGEVVHTFSHIKLTYQVYGLALEGQTPVTTVPPGARWLTQEEFHTAAVSTAMKKVFRVYQGQQPGTCMGSKRSQVSSPCSRKKPRMGQQVLDNFFRSHISTDAHSLNSAAQ

Variants of: B1
Assay: 8OG:A repair function score (normalized; synonymous = 0, nonsense = -1) (normalized log-likelihood score); higher = more repair activity (WT-like)
Conditions: with 8OG:A DNA repair reporter (GFP) in HEK-293 MUTYH KO cells
How it was run: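 With 10 pg/ml doxycycline, MUTYH knockout HEK-293 cells carrying lentiviral MUTYH cDNA NNN codon-scan libraries were co-transfected with mCherry and an 8OG:A GFP repair reporter. Viable mCherry+ cells were sorted into GFP+ (repair) and GFP− bins at 72 h, three replicates per tile, and tile amplicons were sequenced. Per-tile Rosace fitness scores were then normalized into a repair function score anchored on synonymous and nonsense distributions. Medians were fixed at 0 for synonymous and -1 for nonsense, excluding variants under 300 counts per million at the start.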

8OG:A repair function score of substitutions, site by site:
I509: D -0.00523; H 0.0112; A 0.0157; C -0.00892; L 0.00266; Y -0.0704; V 0.0164; W -0.00561; P 0.0272; R -0.0323; K -0.00442; N 0.0286; G -0.00592; T 0.026; M -0.0347; S 0.0252; E 0.0145; F -0.0535; Q 0.0194
N517: H 0.0285; T -0.0674; A -0.00673; M 0.0171; K -0.077; W -0.0342; E -0.0872; L -0.0164; C -0.0105; G 0.0215; I -0.00121; F -0.0651; D 0.0077; S 0.00189; V -0.00815; P 0.0174; Y -0.0106; Q 0.00486; R 9.97e-05
N503: T 0.00666; Q 0.0112; K -0.0135; M -9.05e-05; A 0.0125; D -0.0599; S -0.019; W -0.011; F 0.0039; P -0.000934; G 0.00621; H -0.0815; C 0.00549; L 0.00339; E 0.0211; V -0.0118; R -0.0109; I -0.0307; Y -0.0151
A513: T 0.000215; Q 0.0184; D 0.0137; L -0.00457; V -0.0254; I 0.00892; Y -0.00892; S 0.00165; W -0.0476; F -0.00203; E -0.0288; G 0.0049; R 0.00911; P -0.0105; K 0.0278; H -0.0076; M -0.0173; C -0.00572; N 0.0128
F505: Y 0.00392; G 0.00871; H -0.0303; N 0.0264; Q 0.0246; K -0.0487; S 0.0199; R 0.016; V 0.00446; M -0.0487; P 0.0167; T 0.0174; W 0.00244; D 0.0229; C 0.0238; I 0.0133; L 0.0157; A 0.00138
S510: K -0.00453; R 0.00127; N -0.0738; I -0.0731; L 0.0205; W -0.046; Y -0.0344; F -0.00526; E -0.0364; C -0.0307; V -0.00843; P 0.0141; H 0.0212; M -0.0272; Q -0.053; G -0.0202; T 0.00117; D -0.0311; A -0.00841
S518: C -0.0625; N 0.00686; H -0.0153; E 0.0194; I -0.00126; D -0.00955; A 0.00286; K -0.0195; F -0.0829; L -0.0274; G 0.0246; P -0.0287; Q -0.0542
H514: G 0.0114; I -0.00558; C -0.00794; D -0.0358; M -0.00625; Y -0.00319; N 0.00779; R -0.0107; A -0.021; F -0.0319; Q 0.00808; W -0.03; L -0.0137; K 0.0132; E -0.0112; V 0.0053; P -0.00868; S -0.0171; T -0.02
S515: R 0.00703; V 0.00837; C -0.0274; G -0.000426; N 0.0152; Q -0.00958; W -0.0167; Y 0.025; A -0.018; T -0.00495; E 0.0198; H -0.0115; L -0.00831; K -0.00207; I -0.0207; P -0.0381; M -0.00894; D -0.0425; F -0.00769
S507: K -0.0064; E 0.000264; D -0.0424; C -0.0153; M -0.0199; A -0.0386; L -0.0301; R -0.00355; V -0.000918; N -0.0395; Y -0.141; H -0.084; W -0.0429; Q -0.0688; I -0.0448; T 0.0162; F -0.0917; G -0.00119; P 0.0118
L501: G 0.00711; T -0.0124; V 0.00157; M 0.0114; A 0.00122; Q 0.02; D 0.00991; F 0.0198; Y -0.0132; N -0.0105; H 0.0143; K -0.0877; E 0.0149; I -0.0198; R 0.00197; S 0.0215; C -0.00326; W -0.00606; P 0.0273
T511: H 0.0209; S -0.0121; M -0.0046; I -0.0251; F -0.00618; K -0.00393; V -0.00751; G 0.00111; W -0.0217; C -0.014; E -0.0321; A -0.038; L -0.0126; P -0.0422; N -0.0682; R 0.00505; Q 0.0207; Y 0.0102; D -0.0938
R506: G -0.0057; T 0.0259; L 0.00814; V -0.0196; I 0.0189; Q -0.052; W -0.0815; S 0.00235; E 0.0109; A -0.0637; P 0.0202; F -0.0582; D 0.0134; Y 0.0145; N 0.00916; C 0.0164; K 0.0152
L516: K 0.00908; M 0.00845; S 0.0241; P 0.00373; C 0.00795; W -0.0603; R -0.0194; I 0.0106; Y 0.0181; Q 0.0225; H 0.0157; G 0.00843; V 0.0206; N 0.0104; A 0.017; D -0.0107; E 0.0196; F 0.0067; T 0.0209
D512: C 0.0193; P -0.0253; W -0.023; Y -0.0038; S -0.0201; E -0.0165; G -0.00398; V 0.00239; H -0.0208; T -0.0649; L -0.0115; Q -0.02; F -0.0699; K -0.0591; A -0.0123; N -0.0198; M -0.033; R -7.7e-05; I -0.0146
H508: G -0.00256; D -0.000798; F -0.00232; R -0.0128; C -0.0231; T 0.0103; Q 0.000578; Y 0.0034; M -0.0245; V -0.0097; I -0.0148; E 0.0183; K -0.0603; S -0.00585; A -0.00475; L -0.0429; N -0.00695; W 0.018; P 0.00413
D502: T 0.00564; P -0.0101; L -0.0337; F -0.0425; Y -0.0488; V -0.0389; I -0.0355; N 0.011; G -0.00456; K -0.00432; M -0.0464; Q -0.0749; R 0.0187; E -0.0204; H -0.0311; S -0.0153; W -0.0396; A -0.0186; C -0.00279
V500: Y -0.00833
F504: D 0.0276; E 0.0256; M 0.0285; H 0.0204; A 0.00928; R -0.00117; Y 0.0257; I 0.00771; N 0.023; W -0.0289; K -0.0046; S 0.0238; P -0.0247; T 0.0122; C -0.00333; G -0.0353; Q -0.00826; V -0.00446; L 0.0067
